Drawing on patent US20250304655A1 (CSL BEHRING, published 2025), this text covers Kd, koff and kon for 1 molecule.

Test in all cases: BLI, LRP1 cluster III immobilised, analyte 2000-31.25 nM, kinetic fit 1:1
In general terms: Biolayer interferometry detects binding as a change in optical thickness at a sensor tip.

Assay [1] has as its target T1, heme:Hx-Hp complex (human, UniProt P02790 24-462; P00738 162-406, heme bound, not covalent).
T1 construct: The Hx-Hp fusion protein loaded with heme
The protocol: (§1) Streptavidin pre-coated biosensors (Cat No: 18-5019, FortéBio) were used. […] A reference control was included in every experiment (sensor loaded with ligand without analyte). Data was acquired on an OctetRED96 (FortéBio) at 30° C. with the following settings:
(§2) Since the full length receptor is challenging to express recombiantly, we immobilized only a fragment of CD91/LRP1 (cluster III).

The target of assay [2] is T2, heme:Hx (plasma derived hemopexin complexed with heme) (UniProt P02790 24-462, limits assumed, heme bound, not covalent).
T2 construct: mature; Heme-loaded plasma-derived hemopexin, analyte in BLI; also called heme complexed plasma derived Hx; heme-hemopexin complex
T2 sequence (looked up): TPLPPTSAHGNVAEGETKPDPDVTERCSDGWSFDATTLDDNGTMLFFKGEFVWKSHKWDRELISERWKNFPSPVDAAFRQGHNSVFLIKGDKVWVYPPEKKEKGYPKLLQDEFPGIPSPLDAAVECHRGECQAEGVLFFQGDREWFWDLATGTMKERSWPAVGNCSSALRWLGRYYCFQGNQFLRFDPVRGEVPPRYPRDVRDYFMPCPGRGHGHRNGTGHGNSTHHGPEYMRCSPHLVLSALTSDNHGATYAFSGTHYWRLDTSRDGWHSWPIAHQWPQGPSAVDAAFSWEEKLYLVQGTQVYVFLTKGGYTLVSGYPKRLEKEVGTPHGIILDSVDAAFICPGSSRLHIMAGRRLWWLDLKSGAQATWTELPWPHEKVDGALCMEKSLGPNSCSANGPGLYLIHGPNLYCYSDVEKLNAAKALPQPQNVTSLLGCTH
The protocol: as §1, §2

The target of assay [3] is T3, HuHemopexin-HuHaptoglobin2FS(148-406)-8His (human, UniProt P02790 24-462; P00738 162-406).
T3 construct: Cleaved by co-expressed C1r-LP; the two chains are held by the inter-chain disulphide; Uncomplexed form (no heme, no Hb)
The protocol: as §1, §2

T3 sequence (P00738 other isoform, or with tags, fused parts or gaps): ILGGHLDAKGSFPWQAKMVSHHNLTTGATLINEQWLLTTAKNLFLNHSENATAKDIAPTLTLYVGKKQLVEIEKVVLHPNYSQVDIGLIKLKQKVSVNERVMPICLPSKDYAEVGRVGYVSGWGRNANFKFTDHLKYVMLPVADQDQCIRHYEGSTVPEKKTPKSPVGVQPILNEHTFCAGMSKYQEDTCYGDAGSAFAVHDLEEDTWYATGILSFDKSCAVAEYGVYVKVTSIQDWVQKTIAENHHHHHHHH
T1 sequence (P00738 other isoform, or with tags, fused parts or gaps): as above

B1: biotinylated LRP1 Cluster III (receptor)
chain: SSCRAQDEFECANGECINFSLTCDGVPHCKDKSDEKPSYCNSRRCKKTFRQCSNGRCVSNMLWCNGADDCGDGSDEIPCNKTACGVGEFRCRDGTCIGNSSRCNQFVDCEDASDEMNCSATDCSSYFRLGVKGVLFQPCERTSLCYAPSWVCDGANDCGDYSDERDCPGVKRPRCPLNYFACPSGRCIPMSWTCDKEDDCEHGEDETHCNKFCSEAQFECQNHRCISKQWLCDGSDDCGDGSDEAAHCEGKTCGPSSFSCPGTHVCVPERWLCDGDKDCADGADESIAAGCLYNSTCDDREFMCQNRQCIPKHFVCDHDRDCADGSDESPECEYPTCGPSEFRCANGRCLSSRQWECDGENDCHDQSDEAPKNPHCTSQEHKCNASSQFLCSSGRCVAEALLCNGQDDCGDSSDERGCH
modifications: biotinylated
notes: Detected with an anti-His antibody, so it appears to carry a His tag; also called LRP1/CD91 domain 3; CD91/LRP1 (cluster III)
Consider B1, for which, in assay [1], binding was characterised by a dissociation constant (Kd) of 480 nM; the koff – broadly, the rate constant with which the complex falls apart – was 0.044 s⁻¹; the kon (commonly a measure of how fast the partners come together) amounted to 91000 M⁻¹ s⁻¹. Further, in assay [2], the equilibrium dissociation constant (Kd) – broadly, a measure of binding affinity in units of concentration – is 392 nM; the koff came to 0.068 s⁻¹; the kon turned out to be 170000 M⁻¹ s⁻¹. In assay [3], this molecule came in with a Kd of 2700 nM, a koff of 0.039 s⁻¹ and a kon of 15000 M⁻¹ s⁻¹.
